Results as given in patent publication US6358687, “Methods for monitoring the binding of A1/UP1 to single-stranded nucleic acid sequences, and to measure the effect of this binding on telomere extension and protection” (Telogene Inc.).

Assays:
[1] = target: T1, UP1 (hnRNP A1 fragment) (UniProt P49312 P49312:1-196); experiment: EMSA; not shown; conditions: tags: GST removed by thrombin
[2] = target: T2, GST-UP1 (hnRNP A1 fragment) (UniProt P49312 P49312:1-196); experiment: EMSA; 0.2-4.0 uM protein, 0.5 uM TS10; 2.5 mM MgCl2, 75 mM KCl, 30 C; conditions: tags: GST; label: 5'-32P
T2 sequence (P49312 1-196, one chain of several): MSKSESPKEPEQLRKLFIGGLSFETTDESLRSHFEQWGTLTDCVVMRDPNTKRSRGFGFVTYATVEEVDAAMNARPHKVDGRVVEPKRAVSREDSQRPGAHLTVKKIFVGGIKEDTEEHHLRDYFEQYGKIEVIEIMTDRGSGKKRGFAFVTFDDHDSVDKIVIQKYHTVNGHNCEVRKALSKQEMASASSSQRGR
Experimental: (§1) GST-UP1 (G-UP1) at concentrations of 0, 0.2, 0.5, 1.0, 2.0 and 4.0 µM, or UP1 at concentrations of 0, 1.0, 2.0 and 4.0 µM, were incubated with TS10 (0.5 µM). Complexes were fractionated on 5% non-denaturating polyacrylamide gels. The position of complexes and free TS10 is shown.

[3] = target: T1, UP1 (hnRNP A1 fragment); experiment: EMSA; 1-4 uM protein, 0.5 uM TS10; conditions: tags: GST removed by thrombin; label: 5'-32P
Experimental: as §1

[4] = target: T2, GST-UP1 (hnRNP A1 fragment); experiment: EMSA; not shown; conditions: tags: GST; label: 5'-32P
Experimental: (§2) Gel-shift assays were performed using single-stranded or partially double-stranded duplex substrates. A, the concentrations of GST-UP1 (G-UP1) used for each set of DNA substrate were 0.25, 0.5, 1.0 and 0 µM. Duplex formation was accomplished by incubating an equimolar amount of unlabeled Tb with labeled b' (or unlabeled aT with labeled a'). The partial duplex substrates migrate slightly above the position of labeled Tb and aT. […] B, gel shift assays were accomplished in the presence of an excess of cold oligonucleotides as competitor. Labeled Tb or aT (0.1 µM) was used in combination with cold Tb or aT (0, 0.625, 1.25, 2.5 and 5.0 µM) and G-UP1 (0.3 µM). (Open bar) vertebrate telomeric repeats; (solid bar) nontelomeric DNA. The asterisk (*) indicates which oligonucleotide was ^32P-labeled at its 5' end. Complexes were fractionated on 5% non-denaturating polyacrylamide gels. The position of the free and complexed oligonucleotides is shown.

[5] = target: T2, GST-UP1 (hnRNP A1 fragment); experiment: EMSA; 0.25-1.0 uM protein; conditions: tags: GST; label: 5'-32P
Experimental: as §2

[6] = target: T2, GST-UP1 (hnRNP A1 fragment); experiment: EMSA; legend titled binding to single-stranded telomeric extensions in partial duplex; conditions: tags: GST
Experimental: as §2

T1 sequence (P49312 1-196, one chain of several): as above

B1: Tel2 (ssDNA)
DNA: GGTTAGGGTTAGGGTTAG
B1: binds [1].

B2: TS10 (ssDNA)
DNA: TTAGGGTTAGGGTTAGGGTTAGGGTTAGGGTTAGGGTTAGGGTTAGGGTTAGGGTTAGGG
B2: binds [2]; binds [3].

B3: Ne4 (ssDNA)
DNA: GGGGGTGGGAGCAGGGGAGG
B3: no binding [1].

B4: a' (ssDNA)
DNA: CCAGGACACTAGGCC
B4: no binding [4].

B5: b' (ssDNA)
DNA: CCGGATCACAGGACC
B5: no binding [4].

B6: Tb (ssDNA)
DNA: TAGGGTTAGGGTTAGGGTGGTCCTGTGATCCGG
B6: binds [5].

B7: Tb/b' partial duplex (mixed)
DNA 1: B6 DNA
DNA 2: CCGGATCACAGGACC
B7: binds ([6]; label: 5'-32P on b', 5' single-stranded telomeric overhang).

B8: aT (ssDNA)
DNA: GGCCTAGTGTCCTGGTAGGGTTAGGGTTAGGGT
B8: binds [5].

B9: aT/a' partial duplex (mixed)
DNA 1: B8 DNA
DNA 2: CCAGGACACTAGGCC
B9: binds ([6]; label: 5'-32P on a', 3' single-stranded telomeric overhang).
